Experimental data: PMC8440396 (Nature cell biology, 2021)
Positions count from the first letter of the chain named.

Experiments:
Experiment in all cases: pull-down
Flag-TRIM15 = molecular target: T1, Flag-TRIM15 (human, UniProt Q9C019 1-465)
T1 sequence: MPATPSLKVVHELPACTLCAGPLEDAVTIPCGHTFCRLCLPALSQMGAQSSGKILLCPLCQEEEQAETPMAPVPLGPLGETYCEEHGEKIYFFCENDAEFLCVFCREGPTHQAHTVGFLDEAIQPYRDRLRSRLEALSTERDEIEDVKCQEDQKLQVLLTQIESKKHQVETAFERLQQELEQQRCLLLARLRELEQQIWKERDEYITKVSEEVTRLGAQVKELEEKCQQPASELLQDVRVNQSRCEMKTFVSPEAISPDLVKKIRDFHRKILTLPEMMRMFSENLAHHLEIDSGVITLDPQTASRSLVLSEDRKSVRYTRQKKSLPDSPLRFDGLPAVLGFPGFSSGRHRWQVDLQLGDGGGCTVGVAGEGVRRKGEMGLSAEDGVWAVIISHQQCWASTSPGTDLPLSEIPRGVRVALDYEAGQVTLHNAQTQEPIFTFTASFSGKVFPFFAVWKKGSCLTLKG

Flag-CYLD = molecular target: T2, Flag-CYLD (human, UniProt Q9NQC7 1-956)
T2 sequence: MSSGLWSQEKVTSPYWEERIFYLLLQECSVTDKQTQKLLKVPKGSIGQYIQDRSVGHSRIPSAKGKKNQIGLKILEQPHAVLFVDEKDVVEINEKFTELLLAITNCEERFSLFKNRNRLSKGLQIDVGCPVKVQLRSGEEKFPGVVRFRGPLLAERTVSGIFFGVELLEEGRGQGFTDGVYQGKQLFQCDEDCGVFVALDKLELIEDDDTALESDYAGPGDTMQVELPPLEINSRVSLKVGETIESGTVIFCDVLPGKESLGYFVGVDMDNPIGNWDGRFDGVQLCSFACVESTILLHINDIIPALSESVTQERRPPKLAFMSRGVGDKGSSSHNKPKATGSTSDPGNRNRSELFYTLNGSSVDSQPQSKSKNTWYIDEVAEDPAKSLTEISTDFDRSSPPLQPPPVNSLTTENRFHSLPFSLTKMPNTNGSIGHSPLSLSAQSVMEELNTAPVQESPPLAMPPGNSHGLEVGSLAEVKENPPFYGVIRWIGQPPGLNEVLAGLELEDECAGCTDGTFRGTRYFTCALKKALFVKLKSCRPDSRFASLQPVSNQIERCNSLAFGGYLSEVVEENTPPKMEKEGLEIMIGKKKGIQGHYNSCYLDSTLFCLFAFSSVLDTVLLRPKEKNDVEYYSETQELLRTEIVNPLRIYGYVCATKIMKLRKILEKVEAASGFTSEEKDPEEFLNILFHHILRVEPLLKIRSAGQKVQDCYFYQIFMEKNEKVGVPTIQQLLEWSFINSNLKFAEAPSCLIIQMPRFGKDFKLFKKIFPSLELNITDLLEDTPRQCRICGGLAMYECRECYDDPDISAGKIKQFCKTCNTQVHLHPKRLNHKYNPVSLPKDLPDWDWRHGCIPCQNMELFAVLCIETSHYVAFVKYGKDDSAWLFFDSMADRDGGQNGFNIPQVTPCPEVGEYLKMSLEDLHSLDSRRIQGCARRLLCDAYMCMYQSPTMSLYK

[1] = molecular target: T3, Flag-CYLD^4A (K767A/K768A/L773A/L775A) (human, UniProt Q9NQC7 1-956, K767A | K768A | L773A | L775A)
T3 sequence: T2 sequence with K767A, K768A, L773A, L775A

Flag-ERK1 = Flag-ERK1 (human, UniProt P27361 1-379)
Flag-ERK1^K302R = Flag-ERK1^K302R (human, UniProt P27361 1-379, K302R)

B1: GST-ERK1 (enzyme)
chain: MAAAAAQGGGGGEPRRTEGVGPGVPGEVEMVKGQPFDVGPRYTQLQYIGEGAYGMVSSAYDHVRKTRVAIKKISPFEHQTYCQRTLREIQILLRFRHENVIGIRDILRASTLEAMRDVYIVQDLMETDLYKLLKSQQLSNDHICYFLYQILRGLKYIHSANVLHRDLKPSNLLINTTCDLKICDFGLARIADPEHDHTGFLTEYVATRWYRAPEIMLNSKGYTKSIDIWSVGCILAEMLSNRPIFPGKHYLDQLNHILGILGSPSQEDLNCIINMKARNYLQSLPSKTKVAWAKLFPKSDSKALDLLDRMLTFNPNKRITVEEALAHPYLEQYYDPTDEPVAEEPFTFAMELDDLPKERLKELIFQETARFQPGVLEAP
**Q.** Does B1 bind (Flag-TRIM15)?
**A.** Result: binds

**Q.** Does B1 bind (Flag-CYLD)?
**A.** Result: binds

**Q.** Does B1 bind [1]?
**A.** Result: binds

B2: GST-ELK-1 (aa 307-428) (domain or fragment)
chain: ISQPQKGRKPRDLELPLSPSLLGGPGPERTPGSGSGSGLQAPGPALTPSLLPTHTLTPVLLTPSSLPPSIHFWSTLSPIAPRSPAKLSFQFPSSGSAQVHIPSISVDGLSTPVVLSPGPQKP
**Q.** Does B2 bind (Flag-ERK1)?
**A.** Result: binds

**Q.** Does B2 bind (Flag-ERK1^K302R)?
**A.** Result: binds
